{"source": "patent US20250019439A1", "about": "(Adimab, published 2025)", "binders": {"B1": {"name": "ADI-34145 IgG (antibody, V domains shown)", "VH": "EVQLLESGGGLVQPGGSLRLSCAASGFTFSSYAMSWVRQAPGKGLEWVSTISGSGGSTYYADSVKGRFTISRDNSKNTLYLQMNSLRAEDTAVYYCARLGGRRGSGSSYYYYYGMDVWGQGTTVTVSS", "VL": "not shown", "notes": "anti-ID IgG"}, "B2": {"name": "ADI-34134 IgG (antibody, V domains shown)", "VH": "QVQLVQSGAEVKKPGSSVKVSCKASGGTFSSYAISWVRQAPGQGLEWMGGIIPIFGTANYAQKFQGRVTITADESTSTAYMELSSLRSEDTAVYYCARGAPNYYGSGGYDDGWFDPWGQGTLVTVSS", "VL": "EIVLTQSPGTLSLSPGERATLSCRASQSVSSDYLAWYQQKPGQAPRLLIYGASSRATGIPDRFSGSGSGTDFTLTISRLEPEDFAVYYCQQFGRVPTFGGGTKVEIK"}}, "key": {"ADI-26919 [1]": {"biological_target": "T1, ADI-26919", "T1 construct": "anti-CD3 antibody made in CHO cells, captured by anti-human Fc", "T1 sequence (VH, as listed by the source limits assumed, chain 1 of 2)": "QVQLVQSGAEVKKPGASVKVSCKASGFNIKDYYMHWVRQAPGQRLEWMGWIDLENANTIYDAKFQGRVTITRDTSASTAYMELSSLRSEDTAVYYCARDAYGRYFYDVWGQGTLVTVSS", "T1 sequence (VL, as listed by the source limits assumed, chain 2 of 2)": "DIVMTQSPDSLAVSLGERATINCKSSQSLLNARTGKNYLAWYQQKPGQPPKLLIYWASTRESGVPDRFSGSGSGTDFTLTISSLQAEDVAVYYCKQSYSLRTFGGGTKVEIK", "assay": "SPR Carterra avidity, CHO anti-ID", "method": "(§1) Kinetic analysis was conducted at 25° C. in an HBSTE running buffer system (Carterra Cat #3630) using a Carterra LSA (Carterra USA, Salt Lake City, UT). The sample compartment was maintained at 20° C. for the duration of each experiment.\n(§2) For antibody capture experiments, a goat anti-human Fc antibody (Jackson ImmunoResearch) was covalently coupled to an HC30M sensor chip surface via standard amine coupling (1:1 EDC:NHS) and then blocked with ethanolamine (1.0 M, pH 8.5). Covalent coupling steps were performed in 25 mM MES buffer (Carterra, Cat #3625) plus 0.05% Tween20. The anti-CD3 antibodies (100 nM in running buffer) were flowed over discrete regions of interest on the chip surface for 5 minutes. […] Dissociation of the anti-idiotype antibodies was monitored for 300s. Several blank buffer samples were injected over the entire chip surface at the start of each non-regenerative kinetic cycle. The preceding blank buffer injection was used for blank surface subtraction. At the end of each non-regenerative kinetic cycle, all surfaces were regenerated via two 30s injections of 10 mM glycine, pH 1.7.\n(§3) In Tables 10A-10C, anti-CD3 antibodies are listed by ADI number or CTL number in the first column. […] CTL-62223 is mosunetuzumab, CTL-62227 is odronextamab, CTL-62228 is glofitamab, and CTL-62240 is ONO-4685. […] “W.B.” means weak binding under the conditions of this assay and thus a KD was unable to be assigned. “N.B.” means no binding under the conditions of this assay."}, "ADI-26943 [2]": {"biological_target": "T2, ADI-26943", "T2 construct": "anti-CD3 antibody made in CHO cells, captured by anti-human Fc", "T2 sequence (VH, as listed by the source, chain 1 of 2)": "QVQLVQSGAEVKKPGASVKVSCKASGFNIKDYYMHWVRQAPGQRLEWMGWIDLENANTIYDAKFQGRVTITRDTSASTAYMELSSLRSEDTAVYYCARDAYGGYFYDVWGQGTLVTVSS", "T2 sequence (VL, as listed by the source, chain 2 of 2)": "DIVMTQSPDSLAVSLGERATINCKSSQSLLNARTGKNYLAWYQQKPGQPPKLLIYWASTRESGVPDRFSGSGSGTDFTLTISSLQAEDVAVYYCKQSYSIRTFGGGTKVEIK", "assay": "SPR Carterra avidity, CHO anti-ID", "method": "as §1, §2, §3"}, "ADI-26913 IgG [3]": {"biological_target": "T3, ADI-26913 IgG", "T3 construct": "anti-CD3 IgG", "T3 sequence (VH, as listed by the source limits assumed, chain 1 of 2)": "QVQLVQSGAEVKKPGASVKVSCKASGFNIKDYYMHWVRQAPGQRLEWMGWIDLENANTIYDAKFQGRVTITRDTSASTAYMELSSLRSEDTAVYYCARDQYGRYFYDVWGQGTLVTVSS", "T3 sequence (VL, as listed by the source limits assumed, chain 2 of 2)": "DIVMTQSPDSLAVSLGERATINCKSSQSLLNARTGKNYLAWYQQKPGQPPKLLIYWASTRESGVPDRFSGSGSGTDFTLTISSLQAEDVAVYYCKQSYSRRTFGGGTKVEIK", "assay": "SPR Carterra avidity, CHO anti-ID, *koff limit", "method": "as §1, §2\n(§4) For data processing and fitting, sensorgrams were double reference subtracted with a baseline drift correction of 4 RU. Sensorgrams were y-aligned and baseline corrected, filtered and cropped to include only the association and dissociation steps. Data was fitted to a 1:1 binding model using Carterra Kinetics Data Analysis software version 1.7.1.3055."}, "ADI-70327": {"biological_target": "T4, ADI-70327", "T4 construct": "anti-CD3 antibody made in CHO cells, captured by anti-human Fc", "T4 sequence (VH, as listed by the source limits assumed, chain 1 of 2)": "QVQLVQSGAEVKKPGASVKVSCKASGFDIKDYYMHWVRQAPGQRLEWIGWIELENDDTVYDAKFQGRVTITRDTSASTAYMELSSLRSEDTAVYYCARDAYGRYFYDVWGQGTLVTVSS", "T4 sequence (VL, as listed by the source limits assumed, chain 2 of 2)": "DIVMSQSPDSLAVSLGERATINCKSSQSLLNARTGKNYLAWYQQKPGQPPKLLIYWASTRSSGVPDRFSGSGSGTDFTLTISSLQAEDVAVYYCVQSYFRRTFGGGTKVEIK", "assay": "SPR Carterra avidity, CHO anti-ID", "method": "as §1, §2, §3"}, "ADI-26913 IgG [4]": {"biological_target": "T3, ADI-26913 IgG", "assay": "SPR Carterra avidity, CHO anti-ID", "method": "as §1, §2, §3"}, "ADI-74966": {"biological_target": "T5, ADI-74966", "T5 construct": "pH-dependent anti-CD3 antibody made in CHO cells", "T5 sequence (VH, as listed by the source, chain 1 of 2)": "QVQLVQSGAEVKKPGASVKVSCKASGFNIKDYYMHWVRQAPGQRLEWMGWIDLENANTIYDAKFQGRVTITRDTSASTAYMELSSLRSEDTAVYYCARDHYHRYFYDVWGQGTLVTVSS", "T5 sequence (VL, as listed by the source, chain 2 of 2)": "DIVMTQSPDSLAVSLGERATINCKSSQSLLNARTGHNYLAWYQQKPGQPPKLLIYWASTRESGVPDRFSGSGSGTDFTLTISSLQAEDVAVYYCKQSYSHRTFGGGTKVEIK", "assay": "SPR Carterra avidity, CHO anti-ID", "method": "as §1, §2, §3"}, "ADI-22523 Fab": {"biological_target": "T6, ADI-22523 Fab", "T6 construct": "anti-CD3 Fab by papain digestion of the IgG", "T6 sequence (VH, as listed by the source limits assumed, chain 1 of 2)": "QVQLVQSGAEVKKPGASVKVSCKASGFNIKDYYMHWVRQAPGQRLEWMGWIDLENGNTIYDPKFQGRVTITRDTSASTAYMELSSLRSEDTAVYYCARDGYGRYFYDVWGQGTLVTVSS", "T6 sequence (VL, as listed by the source limits assumed, chain 2 of 2)": "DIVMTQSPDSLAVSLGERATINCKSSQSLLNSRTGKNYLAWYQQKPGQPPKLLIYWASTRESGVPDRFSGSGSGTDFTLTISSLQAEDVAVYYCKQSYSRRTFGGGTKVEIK", "assay": "BLI; tip ADI-34134 IgG, solution anti-CD3 Fab", "method": "(§5) ForteBio affinity measurements were performed generally as previously described (Estep et al., MAbs. 2013 5(2):270-8). Briefly, ForteBio affinity measurements were performed by loading antibody IgG or Fabs on-line onto AHC sensors. Sensors were equilibrated off-line in assay buffer for 30 minutes and then monitored on-line for 60 seconds for baseline establishment. For avid binding measurement, sensors with loaded antibodies were exposed to IgG or Fab solutions for 3 minutes, afterwards they were transferred to assay buffer for 3 minutes for off-rate measurement. Kinetics data were fit using a 1:1 binding model in the data analysis software provided by ForteBio to obtain equilibrium dissociation constant (KD=koff/kₒₙ) values. In each column, tip-immobilized antibodies are listed first and solution antibodies second.\n(§6) In each column, tip-immobilized antibodies are listed first and solution antibodies second."}, "ADI-26906 Fab": {"biological_target": "T7, ADI-26906 Fab", "T7 construct": "anti-CD3 Fab by papain digestion of the IgG", "assay": "BLI; tip ADI-34134 IgG, solution anti-CD3 Fab", "method": "as §5, §6"}, "ADI-26913 Fab": {"biological_target": "T8, ADI-26913 Fab", "T8 construct": "anti-CD3 Fab by papain digestion of the IgG", "assay": "BLI; tip ADI-34134 IgG, solution anti-CD3 Fab", "method": "as §5, §6"}, "ADI-26916 Fab": {"biological_target": "T9, ADI-26916 Fab", "T9 construct": "anti-CD3 Fab by papain digestion of the IgG", "T9 sequence (VH, as listed by the source, chain 1 of 2)": "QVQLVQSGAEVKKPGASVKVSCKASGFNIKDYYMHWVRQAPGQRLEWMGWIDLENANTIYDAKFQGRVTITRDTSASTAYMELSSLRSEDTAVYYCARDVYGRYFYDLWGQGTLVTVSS", "assay": "BLI; tip ADI-34134 IgG, solution anti-CD3 Fab", "method": "as §5, §6"}, "ADI-26921 Fab": {"biological_target": "T10, ADI-26921 Fab", "T10 construct": "anti-CD3 Fab by papain digestion of the IgG", "T10 sequence (VH, as listed by the source limits assumed, chain 1 of 2)": "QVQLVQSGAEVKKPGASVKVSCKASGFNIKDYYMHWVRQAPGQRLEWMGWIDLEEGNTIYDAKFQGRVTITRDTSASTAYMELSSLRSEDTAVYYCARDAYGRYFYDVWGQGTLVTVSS", "assay": "BLI; tip ADI-34134 IgG, solution anti-CD3 Fab", "method": "as §5, §6"}, "ADI-26927 Fab": {"biological_target": "T11, ADI-26927 Fab", "T11 construct": "anti-CD3 Fab by papain digestion of the IgG", "T11 sequence (VH, as listed by the source limits assumed, chain 1 of 2)": "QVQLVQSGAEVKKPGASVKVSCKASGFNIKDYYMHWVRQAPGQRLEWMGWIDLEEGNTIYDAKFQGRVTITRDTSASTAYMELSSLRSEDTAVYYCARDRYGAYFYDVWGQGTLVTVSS", "assay": "BLI; tip ADI-34134 IgG, solution anti-CD3 Fab", "method": "as §5, §6"}, "ADI-26928 Fab": {"biological_target": "T12, ADI-26928 Fab", "T12 construct": "anti-CD3 Fab by papain digestion of the IgG", "T12 sequence (VH, as listed by the source limits assumed, chain 1 of 2)": "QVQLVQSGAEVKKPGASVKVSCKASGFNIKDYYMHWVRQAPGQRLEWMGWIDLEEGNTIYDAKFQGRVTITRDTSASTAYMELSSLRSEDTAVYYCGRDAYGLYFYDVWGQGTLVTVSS", "assay": "BLI; tip ADI-34134 IgG, solution anti-CD3 Fab", "method": "as §5, §6"}, "ADI-26941 Fab": {"biological_target": "T13, ADI-26941 Fab", "T13 construct": "anti-CD3 Fab by papain digestion of the IgG", "T13 sequence (VH, as listed by the source limits assumed, chain 1 of 2)": "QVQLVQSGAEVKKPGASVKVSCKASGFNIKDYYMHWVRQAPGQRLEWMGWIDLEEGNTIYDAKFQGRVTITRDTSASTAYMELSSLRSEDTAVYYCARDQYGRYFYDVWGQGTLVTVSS", "assay": "BLI; tip ADI-34134 IgG, solution anti-CD3 Fab", "method": "as §5, §6"}, "ADI-26954 Fab": {"biological_target": "T14, ADI-26954 Fab", "T14 construct": "anti-CD3 Fab by papain digestion of the IgG", "T14 sequence (VH, as listed by the source limits assumed, chain 1 of 2)": "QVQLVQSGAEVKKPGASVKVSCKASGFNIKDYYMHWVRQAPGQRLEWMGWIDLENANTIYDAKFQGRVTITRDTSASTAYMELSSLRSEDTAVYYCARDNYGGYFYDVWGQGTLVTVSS", "T14 sequence (VL, as listed by the source limits assumed, chain 2 of 2)": "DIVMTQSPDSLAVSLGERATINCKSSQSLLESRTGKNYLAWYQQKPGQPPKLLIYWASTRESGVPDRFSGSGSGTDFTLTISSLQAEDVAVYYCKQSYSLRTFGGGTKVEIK", "assay": "BLI; tip ADI-34134 IgG, solution anti-CD3 Fab", "method": "as §5, §6"}, "ADI-50024": {"biological_target": "T15, ADI-50024", "T15 construct": "anti-CD3 antibody made in CHO cells, captured by anti-human Fc", "T15 sequence (VH, as listed by the source limits assumed, chain 1 of 2)": "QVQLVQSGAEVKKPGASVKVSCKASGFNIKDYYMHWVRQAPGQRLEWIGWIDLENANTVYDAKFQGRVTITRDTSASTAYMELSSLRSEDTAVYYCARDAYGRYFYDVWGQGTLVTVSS", "assay": "SPR Carterra avidity, CHO anti-ID, *koff limit", "method": "as §1, §2, §4"}, "ADI-67445": {"biological_target": "T16, ADI-67445", "T16 construct": "anti-CD3 antibody made in CHO cells, captured by anti-human Fc", "T16 sequence (VH, as listed by the source limits assumed, chain 1 of 2)": "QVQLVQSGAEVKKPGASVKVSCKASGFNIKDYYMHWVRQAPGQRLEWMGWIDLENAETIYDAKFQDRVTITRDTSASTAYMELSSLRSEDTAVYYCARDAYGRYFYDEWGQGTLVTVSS", "assay": "SPR Carterra avidity, CHO anti-ID, *koff limit", "method": "as §1, §2, §4"}, "ADI-67447": {"biological_target": "T17, ADI-67447", "T17 construct": "anti-CD3 antibody made in CHO cells, captured by anti-human Fc", "T17 sequence (VH, as listed by the source limits assumed, chain 1 of 2)": "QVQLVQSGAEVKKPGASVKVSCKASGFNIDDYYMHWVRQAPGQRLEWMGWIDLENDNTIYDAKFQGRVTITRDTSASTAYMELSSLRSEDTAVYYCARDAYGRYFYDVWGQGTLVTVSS", "assay": "SPR Carterra avidity, CHO anti-ID, *koff limit", "method": "as §1, §2, §4"}, "ADI-26909": {"biological_target": "T18, ADI-26909", "T18 construct": "anti-CD3 antibody made in CHO cells, captured by anti-human Fc", "T18 sequence (VH, as listed by the source limits assumed, chain 1 of 2)": "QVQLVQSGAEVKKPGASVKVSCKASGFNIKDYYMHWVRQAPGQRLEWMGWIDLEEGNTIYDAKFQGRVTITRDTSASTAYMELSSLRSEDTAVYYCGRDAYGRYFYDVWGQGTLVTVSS", "assay": "SPR Carterra avidity, CHO anti-ID, *koff limit", "method": "as §1, §2, §4"}, "ADI-26919 [5]": {"biological_target": "T1, ADI-26919", "assay": "SPR Carterra avidity, CHO anti-ID, *koff limit", "method": "as §1, §2, §4"}, "ADI-26920 IgG": {"biological_target": "T19, ADI-26920 IgG", "T19 construct": "anti-CD3 IgG", "T19 sequence (VH, as listed by the source limits assumed, chain 1 of 2)": "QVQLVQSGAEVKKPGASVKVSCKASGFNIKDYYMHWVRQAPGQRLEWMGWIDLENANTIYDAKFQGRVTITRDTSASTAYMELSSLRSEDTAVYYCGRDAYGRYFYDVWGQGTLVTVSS", "assay": "SPR Carterra avidity, CHO anti-ID, *koff limit", "method": "as §1, §2, §4"}, "ADI-26921 IgG": {"biological_target": "T20, ADI-26921 IgG", "T20 construct": "anti-CD3 IgG", "assay": "SPR Carterra avidity, CHO anti-ID, *koff limit", "method": "as §1, §2, §4"}, "ADI-26924": {"biological_target": "T21, ADI-26924", "T21 construct": "anti-CD3 antibody made in CHO cells, captured by anti-human Fc", "T21 sequence (VH, as listed by the source, chain 1 of 2)": "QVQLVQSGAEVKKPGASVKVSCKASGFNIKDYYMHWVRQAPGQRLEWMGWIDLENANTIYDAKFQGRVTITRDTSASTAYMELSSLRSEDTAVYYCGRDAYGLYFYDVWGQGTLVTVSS", "assay": "SPR Carterra avidity, CHO anti-ID, *koff limit", "method": "as §1, §2, §4"}, "ADI-26943 [6]": {"biological_target": "T2, ADI-26943", "assay": "SPR Carterra avidity, CHO anti-ID, *koff limit", "method": "as §1, §2, §4"}, "ADI-74967": {"biological_target": "T22, ADI-74967", "T22 construct": "pH-dependent anti-CD3 antibody made in CHO cells", "T22 sequence (VL, as listed by the source, chain 2 of 2)": "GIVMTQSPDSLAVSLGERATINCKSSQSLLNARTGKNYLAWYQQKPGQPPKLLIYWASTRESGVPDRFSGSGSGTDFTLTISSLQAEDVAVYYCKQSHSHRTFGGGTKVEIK", "assay": "SPR Carterra avidity, CHO anti-ID, *koff limit", "method": "as §1, §2, §4"}, "ADI-76357": {"biological_target": "T23, ADI-76357", "T23 construct": "anti-CD3 antibody made in CHO cells, captured by anti-human Fc", "T23 sequence (VH, as listed by the source, chain 1 of 2)": "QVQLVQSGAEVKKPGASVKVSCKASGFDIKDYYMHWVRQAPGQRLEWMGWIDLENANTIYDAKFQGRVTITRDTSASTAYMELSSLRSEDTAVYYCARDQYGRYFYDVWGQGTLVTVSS", "assay": "SPR Carterra avidity, CHO anti-ID, *koff limit", "method": "as §1, §2, §4"}, "ADI-76361": {"biological_target": "T24, ADI-76361", "T24 construct": "anti-CD3 antibody made in CHO cells, captured by anti-human Fc", "T24 sequence (VH, as listed by the source, chain 1 of 2)": "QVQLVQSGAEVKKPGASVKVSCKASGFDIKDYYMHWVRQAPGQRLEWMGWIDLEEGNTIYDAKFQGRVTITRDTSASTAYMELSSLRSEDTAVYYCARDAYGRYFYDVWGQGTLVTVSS", "assay": "SPR Carterra avidity, CHO anti-ID, *koff limit", "method": "as §1, §2, §4"}, "CTL-62223": {"biological_target": "T25, CTL-62223", "T25 construct": "also called mosunetuzumab", "T25 sequence (VH, as listed by the source, chain 1 of 2)": "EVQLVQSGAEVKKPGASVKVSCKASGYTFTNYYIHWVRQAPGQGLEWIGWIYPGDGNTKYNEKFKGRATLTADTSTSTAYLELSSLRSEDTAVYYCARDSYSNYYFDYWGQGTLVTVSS", "T25 sequence (VL, as listed by the source, chain 2 of 2)": "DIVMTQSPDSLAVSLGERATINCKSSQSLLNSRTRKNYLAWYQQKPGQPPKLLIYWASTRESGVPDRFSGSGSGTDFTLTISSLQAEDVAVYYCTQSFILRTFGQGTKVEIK", "assay": "SPR Carterra avidity, CHO anti-ID, *koff limit", "method": "as §1, §2, §4"}}, "data": [{"binder": "B1", "values": [{"measurement": "Kd", "setting": "ADI-26919 [1]", "result": 12, "unit": "nM"}, {"measurement": "Kd", "setting": "ADI-26943 [2]", "result": 4.2, "unit": "nM"}, {"measurement": "Kd", "setting": "ADI-26913 IgG [3]", "result": 4.4, "unit": "nM"}]}, {"binder": "B2", "values": [{"measurement": "Kd", "setting": "ADI-70327", "result": 1.3, "unit": "nM"}, {"measurement": "Kd", "setting": "ADI-26913 IgG [4]", "result": 0.13, "unit": "nM"}, {"measurement": "Kd", "setting": "ADI-74966", "result": 0.39, "unit": "nM"}, {"measurement": "Kd", "setting": "ADI-22523 Fab", "result": 5.62, "unit": "nM"}, {"measurement": "Kd", "setting": "ADI-26906 Fab", "result": 17.8, "unit": "nM"}, {"measurement": "Kd", "setting": "ADI-26913 Fab", "result": 79.8, "unit": "nM"}, {"measurement": "Kd", "setting": "ADI-26916 Fab", "result": 56.5, "unit": "nM"}, {"measurement": "Kd", "setting": "ADI-26921 Fab", "result": 185, "unit": "nM"}, {"measurement": "Kd", "setting": "ADI-26927 Fab", "result": 38.2, "unit": "nM"}, {"measurement": "Kd", "setting": "ADI-26928 Fab", "result": 31, "unit": "nM"}, {"measurement": "Kd", "setting": "ADI-26941 Fab", "result": 138, "unit": "nM"}, {"measurement": "Kd", "setting": "ADI-26954 Fab", "result": 157, "unit": "nM"}, {"measurement": "Kd", "setting": "ADI-50024", "result": 0.26, "unit": "nM"}, {"measurement": "Kd", "setting": "ADI-67445", "result": 0.13, "unit": "nM"}, {"measurement": "Kd", "setting": "ADI-67447", "result": 0.12, "unit": "nM"}, {"measurement": "Kd", "setting": "ADI-26909", "result": 0.11, "unit": "nM"}, {"measurement": "Kd", "setting": "ADI-26919 [5]", "result": 0.11, "unit": "nM"}, {"measurement": "Kd", "setting": "ADI-26920 IgG", "result": 0.11, "unit": "nM"}, {"measurement": "Kd", "setting": "ADI-26921 IgG", "result": 0.11, "unit": "nM"}, {"measurement": "Kd", "setting": "ADI-26924", "result": 0.1, "unit": "nM"}, {"measurement": "Kd", "setting": "ADI-26943 [6]", "result": 0.1, "unit": "nM"}, {"measurement": "Kd", "setting": "ADI-74967", "result": 0.11, "unit": "nM"}, {"measurement": "Kd", "setting": "ADI-76357", "result": 0.088, "unit": "nM"}, {"measurement": "Kd", "setting": "ADI-76361", "result": 0.094, "unit": "nM"}, {"measurement": "Kd", "setting": "CTL-62223", "result": 0.19, "unit": "nM"}]}]}
